In patent US20170298146A1 (MODIQUEST B V, published 2017):
Non-standard residues stand in square brackets, D forms with d. No end group written: not given here. Cit = NC(=O)NCCC[C@H](N)C(=O)O

What was measured:
[1] = target: T1, human recombinant histone H2A (human); assay: ELISA, 0.4 ug/well
T1 construct: Non-deiminated
Experimental: (§1) CFC-1 and CFC-0 were coated at the same concentration and served as positive and negative controls, respectively, for specific anti-citrulline reactivity and as coating controls. Non-coated wells were used to test for aspecific binding of the antibodies. […] Detection of bound anti-citrulline antibodies was performed by incubating the wells with rabbit-anti-human-HRP (1:2000) for one hour at RT followed by incubation with TMB substrate. The resulting OD (y-axis) is a measure for antibody binding. H1=recombinant histone 1; H1/p2=huPAD2 recombinant histone 1; H1/p4=huPAD4 recombinant histone 1 and so forth (x-axis).

[2] = target: T2, huPAD2 deiminated human recombinant histone H2A (human); assay: ELISA, 0.4 ug/well
T2 construct: also called H2A/p2
Experimental: as §1

[3] = target: T3, huPAD4 deiminated human recombinant histone H2A (human); assay: ELISA, 0.4 ug/well
T3 construct: also called H2A/p4; huPAD4 deiminated histone 2A
Experimental: as §1

[4] = target: T4, huPAD2 deiminated human recombinant histone H2B (human); assay: ELISA, 0.4 ug/well
T4 construct: also called H2B/p2
Experimental: as §1

[5] = target: T5, huPAD4 deiminated human recombinant histone H2B (human); assay: ELISA, 0.4 ug/well
T5 construct: also called H2B/p4
Experimental: as §1

[6] = target: T6, huPAD2 deiminated human recombinant histone H3 (human); assay: ELISA, 0.4 ug/well
T6 construct: also called H3/p2
Experimental: as §1

[7] = target: T7, huPAD4 deiminated human recombinant histone H3 (human); assay: ELISA, 0.4 ug/well
T7 construct: also called H3/p4
Experimental: as §1

[8] = target: T8, human recombinant histone H4 (human, UniProt P62805 2-103); assay: ELISA, 0.4 ug/well
Experimental: as §1

CFC-1 [9] = target: T9, CFC-1; assay: ELISA, 0.4 ug/well
T9 construct: Positive control for anti-citrulline reactivity; also called cfc1 XG
Experimental: as §1

[10] = target: T4, huPAD2 deiminated human recombinant …; assay: ELISA, 0.016 ug/well
Experimental: as §1

[11] = target: T8, human recombinant histone H4; assay: ELISA, 0.016 ug/well
Experimental: as §1

msFibα XH = target: T10, msFibα XH (mouse, X at position 15 is citrulline; biotin label); assay: peptide ELISA, 0.016 ug/well
T10 peptide: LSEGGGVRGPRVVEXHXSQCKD
Experimental: (§2) Biotin and citrulline-containing peptides derived from fibrinogen and vimentin were immobilized on NEUTRAVIDIN®-coated 96-well ELISA plates (0.3 μg/well). CFC-1 and CFC-0 were coated at the same concentration and served as positive and negative controls respectively for specific anti-citrulline reactivity and as coating controls. Non-coated wells were used to test for aspecific binding of the antibodies. […] Detection of bound anti-citrulline antibodies was performed by incubating the wells with rabbit-anti-human-HRP (1:2000) for one hour at RT followed by incubation with TMB substrate. The resulting OD (y-axis) is a measure for antibody binding.
(§3) Biotin-labeled and citrulline-containing fibrinogen and vimentin peptides (Table 5) were also tested for reactivity with the therapeutic antibodies. Peptides were coated on 96-well NEUTRAVIDIN®-ELISA plates.

msFibα XG = target: T11, msFibα XG (mouse, X at position 8 is citrulline; biotin label); assay: peptide ELISA, 0.016 ug/well
T11 peptide: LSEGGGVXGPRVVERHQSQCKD
Experimental: as §2, §3

huFibα XH = target: T12, huFibα XH (human, X at position 15 is citrulline; biotin label); assay: peptide ELISA, 0.016 ug/well
T12 peptide: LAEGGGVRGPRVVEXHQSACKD
Experimental: as §2, §3

CFC-1 [12] = target: T9, CFC-1; assay: peptide ELISA, 0.0023 ug/well
Experimental: as §2, with “histone 2A” for “fibrinogen and vimentin”
(§4) Ninety-six-well ELISA plates were coated with NEUTRAVIDIN® (0.1 μg/well) by overnight incubation at 4° C. Wells were washed five times with PBS-TWEEN®-20 (PBS-T) and blocked by a one-hour incubation with PBS-T+1% Bovine serum albumin (BSA) at room temperature (RT). After five more washes with PBS-T, wells were incubated for one hour at RT with histone-derived citrulline and biotin-containing peptides (0.3 μg/well). […] Wells were washed five times with PBS-T and incubated with rabbit-anti-human-HRP (1:2000) for one hour at RT followed by five washes with PBS-T and three wash steps with PBS. Wells were incubated for five minutes with TMB substrate before stopping the reaction with 2 M H₂SO₄. Optical density was measured by 450 nm and is a measure for the affinity of the antibodies used.

[13] = target: T13, Histone 2A citrulline-containing peptide 1 (human, also: biotin label); assay: peptide ELISA, 0.0023 ug/well
T13 construct: also called AAASGXGKQGGK
T13 peptide: AAASG[Cit]GKQGGK
Experimental: as §2, with “histone 2A” for “fibrinogen and vimentin”
as §4

[14] = target: T14, Histone 2A citrulline-containing peptide 4 (human, also: biotin label); assay: peptide ELISA, 0.0023 ug/well
T14 peptide: QFPVG[Cit]VHRLLR
Experimental: as §2, with “histone 2A” for “fibrinogen and vimentin”
as §4

[15] = target: T15, Histone 2A citrulline-containing peptide 5 (human, also: biotin label); assay: peptide ELISA, 0.0023 ug/well
T15 peptide: VGRVH[Cit]LLRKGN
Experimental: as §2, with “histone 2A” for “fibrinogen and vimentin”
as §4

[16] = target: T16, Histone 2A citrulline-containing peptide 7 (human, also: biotin label); assay: peptide ELISA, 0.0023 ug/well
T16 peptide: GNYSE[Cit]VGAGAP
Experimental: as §2, with “histone 2A” for “fibrinogen and vimentin”
as §4

[17] = target: T17, Histone 2A citrulline-containing peptide 8 (human, also: biotin label); assay: peptide ELISA, 0.0023 ug/well
T17 peptide: AGNAA[Cit]DNKKTR
Experimental: as §2, with “histone 2A” for “fibrinogen and vimentin”
as §4

[18] = target: T18, Histone 2A citrulline-containing peptide 10 (human, also: biotin label); assay: peptide ELISA, 0.0023 ug/well
T18 peptide: TRIIP[Cit]HLQLAI
Experimental: as §2, with “histone 2A” for “fibrinogen and vimentin”
as §4

[19] = target: T19, Histone 2A citrulline-containing peptide 11 (human, also: biotin label); assay: peptide ELISA, 0.0023 ug/well
T19 peptide: LQLAI[Cit]NDEELN
Experimental: as §2, with “histone 2A” for “fibrinogen and vimentin”
as §4

[20] = target: T20, Histone 2A citrulline-containing peptide 12 (human, also: biotin label); assay: peptide ELISA, 0.0023 ug/well
T20 peptide: NKLLG[Cit]VTIAQG
Experimental: as §2, with “histone 2A” for “fibrinogen and vimentin”
as §4

B1: RhmAb2.102 (antibody, human IgG1, lambda)
heavy: not shown
light: QSVLTQPPSMSAAPGQKVTISCSGSSSNIGNNYVSWYQQVPGTAPKLLIYDDNKRPSGIPGRFSGSKSATSATLGITGLQAGDEADYYCGSWDDNLSVVLFGGGTKLTVLGQPKAAPSVTLFPPSSEELQANKATLVCLISDFYPGAVTVAWKADSSPVKAGVETTTPSKQSNNKYAASSYLSLTPEQWKSHRSYSCQVTHEGSTVEKTVAPTECS
notes: Human IgG1 lambda; also called Rhm2.102
For B1, which OD [1] is on record?
Its OD is 0.071 OD.

What about the OD [2] of the same binder?
Its OD is 3.08 OD.

And the OD [3]?
Its OD is 2.72 OD.

And the OD [4]?
Its OD is 0.06 OD.

And the OD [5]?
Its OD is 0.054 OD.

What about the OD [6] of the same binder?
Its OD is 1.18 OD.

And the OD [7]?
Its OD is 0.166 OD.

What about the OD [8] of the same binder?
Its OD is 0.091 OD.

And the OD (CFC-1 [9])?
Its OD is 3.12 OD.

What about the OD [10] of the same binder?
The OD was 0.052 OD.

And the OD [11]?
The OD was 0.061 OD.

What about the OD (msFibα XH) of the same binder?
Its OD is 0.081 OD.

What about the OD (msFibα XG) of the same binder?
The OD was 0.107 OD.

And the OD (huFibα XH)?
Its OD is 0.08 OD.

And the OD (CFC-1 [12])?
The OD was 0.916 OD.

What about the OD [13] of the same binder?
The OD was 0.3 OD.

And the OD [14]?
The OD was 0.078 OD.

What about the OD [15] of the same binder?
The OD was 0.063 OD.

What about the OD [16] of the same binder?
The OD was 0.064 OD.

And the OD [17]?
Its OD is 0.06 OD.

And the OD [18]?
The OD was 0.068 OD.

And the OD [19]?
The OD was 0.057 OD.

What about the OD [20] of the same binder?
The OD was 0.059 OD.
